Reference: patent US20120039803A1, “PRETARGETING KIT, METHOD AND AGENTS USED THEREIN” (KONINKLIJKE PHILIPS ELECTRONICS N.V., priority 2009, published 2012)

Test system: human colon cancer cell line LS174T
Conditions: mouse, in vivo

Rtx-TCO: TCO-modified rituximab for control in vivo experiments; lacks specificity for TAG72
tumor-to-blood ratio (T/B): 0.6±0.0 | tumor-to-muscle ratio (T/M): 4.9±0.8
